The source of these data is patent US20230021388A1 (VELOSBIO, published 2023).

B1: Ab1 Fab variant H2 G67P (Fab, V domains shown)
VH: QVQLQESGPGLVKPSQTLSLTCTVSGYAFTAYNIHWVRQAPGQGLEWMGSFDPYDGPSSYNQKFKDRLTISKDTSKNQVVLTMTNMDPVDTATYYCARGWYYFDYWGHGTLVTVSS
VL: DIVMTQTPLSLPVTPGEPASISCRASKSISKYLAWYQQKPGQAPRLLIYSGSTLQSGIPPRFSGSGYGTDFTLTINNIESEDAAYYFCQQHDESPYTFGEGTKVEIK
notes: Fab
B2: Ab1 Fab variant L1 A25P (Fab, V domains shown)
VH: QVQLQESGPGLVKPSQTLSLTCTVSGYAFTAYNIHWVRQAPGQGLEWMGSFDPYDGGSSYNQKFKDRLTISKDTSKNQVVLTMTNMDPVDTATYYCARGWYYFDYWGHGTLVTVSS
VL: DIVMTQTPLSLPVTPGEPASISCRPSKSISKYLAWYQQKPGQAPRLLIYSGSTLQSGIPPRFSGSGYGTDFTLTINNIESEDAAYYFCQQHDESPYTFGEGTKVEIK
notes: Fab
B3: Ab1 Fab variant L1 L41M (Fab, V domains shown)
VH: QVQLQESGPGLVKPSQTLSLTCTVSGYAFTAYNIHWVRQAPGQGLEWMGSFDPYDGGSSYNQKFKDRLTISKDTSKNQVVLTMTNMDPVDTATYYCARGWYYFDYWGHGTLVTVSS
VL: DIVMTQTPLSLPVTPGEPASISCRASKSISKYMAWYQQKPGQAPRLLIYSGSTLQSGIPPRFSGSGYGTDFTLTINNIESEDAAYYFCQQHDESPYTFGEGTKVEIK
notes: Fab
B4: Ab1 Fab variant H2 G67R (Fab, V domains shown)
VH: QVQLQESGPGLVKPSQTLSLTCTVSGYAFTAYNIHWVRQAPGQGLEWMGSFDPYDGRSSYNQKFKDRLTISKDTSKNQVVLTMTNMDPVDTATYYCARGWYYFDYWGHGTLVTVSS
VL: DIVMTQTPLSLPVTPGEPASISCRASKSISKYLAWYQQKPGQAPRLLIYSGSTLQSGIPPRFSGSGYGTDFTLTINNIESEDAAYYFCQQHDESPYTFGEGTKVEIK
notes: Fab
B5: Ab1 Fab variant H2 S68A (Fab, V domains shown)
VH: QVQLQESGPGLVKPSQTLSLTCTVSGYAFTAYNIHWVRQAPGQGLEWMGSFDPYDGGASYNQKFKDRLTISKDTSKNQVVLTMTNMDPVDTATYYCARGWYYFDYWGHGTLVTVSS
VL: DIVMTQTPLSLPVTPGEPASISCRASKSISKYLAWYQQKPGQAPRLLIYSGSTLQSGIPPRFSGSGYGTDFTLTINNIESEDAAYYFCQQHDESPYTFGEGTKVEIK
notes: Fab
B6: Ab1 Fab variant H2 N71S (Fab, V domains shown)
VH: QVQLQESGPGLVKPSQTLSLTCTVSGYAFTAYNIHWVRQAPGQGLEWMGSFDPYDGGSSYSQKFKDRLTISKDTSKNQVVLTMTNMDPVDTATYYCARGWYYFDYWGHGTLVTVSS
VL: DIVMTQTPLSLPVTPGEPASISCRASKSISKYLAWYQQKPGQAPRLLIYSGSTLQSGIPPRFSGSGYGTDFTLTINNIESEDAAYYFCQQHDESPYTFGEGTKVEIK
notes: Fab
B7: Ab1 Fab variant H2 S69K (Fab, V domains shown)
VH: QVQLQESGPGLVKPSQTLSLTCTVSGYAFTAYNIHWVRQAPGQGLEWMGSFDPYDGGSKYNQKFKDRLTISKDTSKNQVVLTMTNMDPVDTATYYCARGWYYFDYWGHGTLVTVSS
VL: DIVMTQTPLSLPVTPGEPASISCRASKSISKYLAWYQQKPGQAPRLLIYSGSTLQSGIPPRFSGSGYGTDFTLTINNIESEDAAYYFCQQHDESPYTFGEGTKVEIK
notes: Fab
B8: Ab1 Fab variant H2 S68T (Fab, V domains shown)
VH: QVQLQESGPGLVKPSQTLSLTCTVSGYAFTAYNIHWVRQAPGQGLEWMGSFDPYDGGTSYNQKFKDRLTISKDTSKNQVVLTMTNMDPVDTATYYCARGWYYFDYWGHGTLVTVSS
VL: DIVMTQTPLSLPVTPGEPASISCRASKSISKYLAWYQQKPGQAPRLLIYSGSTLQSGIPPRFSGSGYGTDFTLTINNIESEDAAYYFCQQHDESPYTFGEGTKVEIK
notes: Fab
B9: Ab1 Fab variant H2 Y70V (Fab, V domains shown)
VH: QVQLQESGPGLVKPSQTLSLTCTVSGYAFTAYNIHWVRQAPGQGLEWMGSFDPYDGGSSVNQKFKDRLTISKDTSKNQVVLTMTNMDPVDTATYYCARGWYYFDYWGHGTLVTVSS
VL: DIVMTQTPLSLPVTPGEPASISCRASKSISKYLAWYQQKPGQAPRLLIYSGSTLQSGIPPRFSGSGYGTDFTLTINNIESEDAAYYFCQQHDESPYTFGEGTKVEIK
notes: Fab
B10: Ab1 Fab variant H2 G67Q (Fab, V domains shown)
VH: QVQLQESGPGLVKPSQTLSLTCTVSGYAFTAYNIHWVRQAPGQGLEWMGSFDPYDGQSSYNQKFKDRLTISKDTSKNQVVLTMTNMDPVDTATYYCARGWYYFDYWGHGTLVTVSS
VL: DIVMTQTPLSLPVTPGEPASISCRASKSISKYLAWYQQKPGQAPRLLIYSGSTLQSGIPPRFSGSGYGTDFTLTINNIESEDAAYYFCQQHDESPYTFGEGTKVEIK
notes: Fab
B11: Ab1 Fab variant H2 N71A (Fab, V domains shown)
VH: QVQLQESGPGLVKPSQTLSLTCTVSGYAFTAYNIHWVRQAPGQGLEWMGSFDPYDGGSSYAQKFKDRLTISKDTSKNQVVLTMTNMDPVDTATYYCARGWYYFDYWGHGTLVTVSS
VL: DIVMTQTPLSLPVTPGEPASISCRASKSISKYLAWYQQKPGQAPRLLIYSGSTLQSGIPPRFSGSGYGTDFTLTINNIESEDAAYYFCQQHDESPYTFGEGTKVEIK
notes: Fab
B12: Ab1 Fab variant L1 K29S (Fab, V domains shown)
VH: QVQLQESGPGLVKPSQTLSLTCTVSGYAFTAYNIHWVRQAPGQGLEWMGSFDPYDGGSSYNQKFKDRLTISKDTSKNQVVLTMTNMDPVDTATYYCARGWYYFDYWGHGTLVTVSS
VL: DIVMTQTPLSLPVTPGEPASISCRASSSISKYLAWYQQKPGQAPRLLIYSGSTLQSGIPPRFSGSGYGTDFTLTINNIESEDAAYYFCQQHDESPYTFGEGTKVEIK
notes: Fab
B13: Ab1 Fab variant H2 N71H (Fab, V domains shown)
VH: QVQLQESGPGLVKPSQTLSLTCTVSGYAFTAYNIHWVRQAPGQGLEWMGSFDPYDGGSSYHQKFKDRLTISKDTSKNQVVLTMTNMDPVDTATYYCARGWYYFDYWGHGTLVTVSS
VL: DIVMTQTPLSLPVTPGEPASISCRASKSISKYLAWYQQKPGQAPRLLIYSGSTLQSGIPPRFSGSGYGTDFTLTINNIESEDAAYYFCQQHDESPYTFGEGTKVEIK
notes: Fab
B14: Ab1 Fab variant H2 G67Y (Fab, V domains shown)
VH: QVQLQESGPGLVKPSQTLSLTCTVSGYAFTAYNIHWVRQAPGQGLEWMGSFDPYDGYSSYNQKFKDRLTISKDTSKNQVVLTMTNMDPVDTATYYCARGWYYFDYWGHGTLVTVSS
VL: DIVMTQTPLSLPVTPGEPASISCRASKSISKYLAWYQQKPGQAPRLLIYSGSTLQSGIPPRFSGSGYGTDFTLTINNIESEDAAYYFCQQHDESPYTFGEGTKVEIK
notes: Fab
B15: Ab1 Fab variant L1 K29E (Fab, V domains shown)
VH: QVQLQESGPGLVKPSQTLSLTCTVSGYAFTAYNIHWVRQAPGQGLEWMGSFDPYDGGSSYNQKFKDRLTISKDTSKNQVVLTMTNMDPVDTATYYCARGWYYFDYWGHGTLVTVSS
VL: DIVMTQTPLSLPVTPGEPASISCRASESISKYLAWYQQKPGQAPRLLIYSGSTLQSGIPPRFSGSGYGTDFTLTINNIESEDAAYYFCQQHDESPYTFGEGTKVEIK
notes: Fab
B16: Ab1 Fab variant H2 N71G (Fab, V domains shown)
VH: QVQLQESGPGLVKPSQTLSLTCTVSGYAFTAYNIHWVRQAPGQGLEWMGSFDPYDGGSSYGQKFKDRLTISKDTSKNQVVLTMTNMDPVDTATYYCARGWYYFDYWGHGTLVTVSS
VL: DIVMTQTPLSLPVTPGEPASISCRASKSISKYLAWYQQKPGQAPRLLIYSGSTLQSGIPPRFSGSGYGTDFTLTINNIESEDAAYYFCQQHDESPYTFGEGTKVEIK
notes: Fab
B17: Ab1 Fab variant H2 Y70I (Fab, V domains shown)
VH: QVQLQESGPGLVKPSQTLSLTCTVSGYAFTAYNIHWVRQAPGQGLEWMGSFDPYDGGSSINQKFKDRLTISKDTSKNQVVLTMTNMDPVDTATYYCARGWYYFDYWGHGTLVTVSS
VL: DIVMTQTPLSLPVTPGEPASISCRASKSISKYLAWYQQKPGQAPRLLIYSGSTLQSGIPPRFSGSGYGTDFTLTINNIESEDAAYYFCQQHDESPYTFGEGTKVEIK
notes: Fab
B18: Ab1 Fab variant L1 I31V (Fab, V domains shown)
VH: QVQLQESGPGLVKPSQTLSLTCTVSGYAFTAYNIHWVRQAPGQGLEWMGSFDPYDGGSSYNQKFKDRLTISKDTSKNQVVLTMTNMDPVDTATYYCARGWYYFDYWGHGTLVTVSS
VL: DIVMTQTPLSLPVTPGEPASISCRASKSVSKYLAWYQQKPGQAPRLLIYSGSTLQSGIPPRFSGSGYGTDFTLTINNIESEDAAYYFCQQHDESPYTFGEGTKVEIK
notes: Fab
B19: Ab1 Fab variant H2 S69V (Fab, V domains shown)
VH: QVQLQESGPGLVKPSQTLSLTCTVSGYAFTAYNIHWVRQAPGQGLEWMGSFDPYDGGSVYNQKFKDRLTISKDTSKNQVVLTMTNMDPVDTATYYCARGWYYFDYWGHGTLVTVSS
VL: DIVMTQTPLSLPVTPGEPASISCRASKSISKYLAWYQQKPGQAPRLLIYSGSTLQSGIPPRFSGSGYGTDFTLTINNIESEDAAYYFCQQHDESPYTFGEGTKVEIK
notes: Fab
B20: Ab1 Fab variant H2 S69E (Fab, V domains shown)
VH: QVQLQESGPGLVKPSQTLSLTCTVSGYAFTAYNIHWVRQAPGQGLEWMGSFDPYDGGSEYNQKFKDRLTISKDTSKNQVVLTMTNMDPVDTATYYCARGWYYFDYWGHGTLVTVSS
VL: DIVMTQTPLSLPVTPGEPASISCRASKSISKYLAWYQQKPGQAPRLLIYSGSTLQSGIPPRFSGSGYGTDFTLTINNIESEDAAYYFCQQHDESPYTFGEGTKVEIK
notes: Fab

T1 sequence (Q01973 30-406 limits assumed): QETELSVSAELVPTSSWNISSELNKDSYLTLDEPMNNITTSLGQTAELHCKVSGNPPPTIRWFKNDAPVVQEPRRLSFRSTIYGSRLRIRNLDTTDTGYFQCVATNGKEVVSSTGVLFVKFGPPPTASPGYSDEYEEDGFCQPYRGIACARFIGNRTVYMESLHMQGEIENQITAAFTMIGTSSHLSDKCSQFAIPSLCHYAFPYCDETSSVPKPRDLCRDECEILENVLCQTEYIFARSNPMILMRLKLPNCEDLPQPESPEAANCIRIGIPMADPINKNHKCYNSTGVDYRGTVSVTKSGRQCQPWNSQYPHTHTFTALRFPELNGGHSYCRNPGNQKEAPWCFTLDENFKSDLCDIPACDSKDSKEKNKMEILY

The experiment has as its target T1, recombinant human ROR1 extracellular domain (human, UniProt Q01973 30-406).
T1 construct: biotinylated for the filter lifts; also called huROR1-ECD; human ROR1-ECD
As to the kind of experiment: ELISA, soluble Fab on coated huROR1-ECD. As for the experimental part:
The previously described filter lift assay provides a visual, qualitative assessment of antigen binding (Example 1). In order to assess the ROR1 binding activity of Ab1 Fab in a more quantitative fashion, an ELISA assay was developed. A 96-well Costar-3366 plate was coated with 50 μL/well of 1 μg/mL human ROR1-ECD (ACROBiosystems, cat. #RO1-H522y) in PBS overnight at 4° C. The plate was rinsed once with PBS-T and blocked with 100 μL/well of 5% M-P for 1 h at 25° C. Fab samples were serially diluted 3-fold using 5% M-P and 50 μL/well was incubated for 1 h at 25° C. The plate was washed three times with PBS-T and 50 μL/well anti-human kappa, and HRP conjugate (Southern Biotech, cat. #2060-05) diluted 10,000-fold in 5% M-P was added for 1 h at 25° C. In certain assays (extended wash format), the plate was placed in large volumes (up to 1 L) of PBS-T and incubated, with mixing, for 2-5 h prior to the addition of anti-human kappa, HRP conjugate. The plate was washed three times with PBS-T, and developed with 50 μL/well 1-Step Ultra TMB-ELISA (Thermo Scientific, cat. #34028). The reaction was terminated by the addition of 2 N H2504 and the A450 was determined using a Spectramax plate reader.
(In general: ELISA stands for enzyme-linked immunosorbent assay.)
As for B1, the Kd – broadly, the constant that tells how readily two partners part at equilibrium – came out at 0.6 nM. On to B2, for which the Kd was found to be 0.7 nM. In the case of B3 it was 1.3 nM; in that of B4, 1.7 nM; in that of B5, 1.2 nM. With B6 the figure was 1.2 nM; with B7, 46 nM. For B8, the Kd worked out at 6.4 nM. With B9 the figure was 1.5 nM. With B10 the figure was under 1 nM; with B11, 1.3 nM. In the case of B12 it was 0.9 nM; in that of B13, 1.1 nM; in that of B14, 6.3 nM. For the molecule B15, the Kd amounted to 1.2 nM.

In the case of B16, the Kd turned out to be 1.5 nM. B17: the Kd was 1.7 nM. With B18 the figure was 2.8 nM; with B19, 1 nM; with B20, 1.2 nM.
